The source of these data is publication PMC12721328, “DNA extrusion size determines pathway choice during CAG repeat expansion”.

The data set concerns the target MSH2 (MutSβ subunit);MSH3 (MutSβ subunit) (human;human, UniProt P43246;P20585 1-934;1-1137, |). In words: SPR; 10 mM Mg2+; FAN1 SPR: 20 mM Tris-HCl pH 7.6, 70 mM NaCl, 10 mM CaCl2, 1 mM EDTA, 0.01% P-20, 1 mM DTT, 0.05 mg/ml BSA, 5°C; MutSβ SPR: 10 mM Tris-HCl pH 7.6, 150 mM NaCl, 10 mM MgCl2, 1 mM EDTA, 1 mM DTT, 0.005% P-20 (samples held at 10°C). Conditions: protein: recombinant;recombinant, tags: ;, copies: 1;1, label: 5'-biotin on strand 1, 5'-digoxigenin on strand 2, blunt. (In SPR one partner is held on a chip, and binding of the other changes the refractive index at the surface.)

B1: (CAG)1 extrusion mr78 (dsDNA)
DNA 1: CGAATTTCTAGACTCGAGATCAGCTGCTAGGTCGAGTCTAGAG
DNA 2: CTCTAGACTCGACCTAGCAGATCTCGAGTCTAGAAATTCG
On to B1, for which, for the setting “central 3-nt extrusion in strand 1, 20 bp each side”, the Kd was found to be 0.5 ± 0.1 nM.

B2: (CAG)2 extrusion mr78 (dsDNA)
DNA 1: CGAATTTCTAGACTCGAGATCAGCAGCTGCTAGGTCGAGTCTAGAG
DNA 2: B1 DNA 2
Consider B2, for which the Kd (central 6-nt extrusion in strand 1, 20 bp each side) was determined as 0.5 ± 0.16 nM.

B3: (CAG)13 extrusion mr78 (dsDNA)
DNA 1: CGAATTTCTAGACTCGAGATCAGCAGCAGCAGCAGCAGCAGCAGCAGCAGCAGCAGCAGCTGCTAGGTCGAGTCTAGAG
DNA 2: B1 DNA 2
Turning to B3, the Kd (central 39-nt extrusion in strand 1, 20 bp each side) was determined as 4.2 ± 1.5 nM.

B4: (CAG)3 extrusion mr78 (dsDNA)
DNA 1: CGAATTTCTAGACTCGAGATCAGCAGCAGCTGCTAGGTCGAGTCTAGAG
DNA 2: B1 DNA 2
Take B4: under “central 9-nt extrusion in strand 1, 20 bp each side”, the Kd came to 1.2 ± 0.4 nM.

The term Kd denotes the equilibrium constant for the complex coming apart.
